In experiment [1] the target is mHsp60 S464C variant (human). Kind of experiment: SEC-MALS; mHsp60 (WT or variant) with mHsp10, pre-incubated with 1 mM ATP, 1 mM BeCl2 and 10 mM NaF for 5 min; Superose-6, ~25 C.
In experiment [2] the target is mHsp60 S464C variant (human). The experiment is described as follows: native gel or EMSA; 15 uM mHsp60 variant pre-incubated 5 min without nucleotide or with ADP in 20 mM Tris-HCl pH 7.7, 20 mM MgCl2, 50 mM KCl; 6% native PAGE.
In experiment [3] the target is mHsp60 S464R/K109E variant (human). The experiment is described as follows: SEC-MALS; mHsp60 (WT or variant) with mHsp10, pre-incubated with 1 mM ATP, 1 mM BeCl2 and 10 mM NaF for 5 min; Superose-6, ~25 C.
In experiment [4] the target is mHsp60 S464R variant (human). The experiment is described as above.

mHsp60 S464C variant (natural protein): the values for the stoichiometry N in experiment [1] and in experiment [2] were 14 and 7, respectively. In turn, “mHsp60 S464R/K109E variant (natural protein)” had a stoichiometry N in experiment [3] of 7. Substance mHsp60 S464R variant (natural protein) came in with a stoichiometry N in experiment [4] of 7.

For the origin of these results see PMC7174398.
